Two molecules from US20160115226A1 (SINGH MOLECULAR MEDICINE, published 2016) can be followed below.

Like-named read-outs stand apart in the source and are kept apart here.

The target in assay [1] is GST-STAT3 (16 kDa monovalent antigen, Creative BioMart #STAT3-1476H) (UniProt P40763).
For assay [2] the target is unchanged. This is another data set of the same source.
For assay [3] the target is unchanged. This is another data set of the same source.
For assay [4], the target named is endogenous STAT3 in human cancer cell lysates (MDA-MB-231, PANC-1, DU145) (human, UniProt P40763 2-770).
Sequence of endogenous STAT3 in human cancer cell lysates (MDA-MB-231, PANC-1, DU145) (P40763 2-770 limits assumed): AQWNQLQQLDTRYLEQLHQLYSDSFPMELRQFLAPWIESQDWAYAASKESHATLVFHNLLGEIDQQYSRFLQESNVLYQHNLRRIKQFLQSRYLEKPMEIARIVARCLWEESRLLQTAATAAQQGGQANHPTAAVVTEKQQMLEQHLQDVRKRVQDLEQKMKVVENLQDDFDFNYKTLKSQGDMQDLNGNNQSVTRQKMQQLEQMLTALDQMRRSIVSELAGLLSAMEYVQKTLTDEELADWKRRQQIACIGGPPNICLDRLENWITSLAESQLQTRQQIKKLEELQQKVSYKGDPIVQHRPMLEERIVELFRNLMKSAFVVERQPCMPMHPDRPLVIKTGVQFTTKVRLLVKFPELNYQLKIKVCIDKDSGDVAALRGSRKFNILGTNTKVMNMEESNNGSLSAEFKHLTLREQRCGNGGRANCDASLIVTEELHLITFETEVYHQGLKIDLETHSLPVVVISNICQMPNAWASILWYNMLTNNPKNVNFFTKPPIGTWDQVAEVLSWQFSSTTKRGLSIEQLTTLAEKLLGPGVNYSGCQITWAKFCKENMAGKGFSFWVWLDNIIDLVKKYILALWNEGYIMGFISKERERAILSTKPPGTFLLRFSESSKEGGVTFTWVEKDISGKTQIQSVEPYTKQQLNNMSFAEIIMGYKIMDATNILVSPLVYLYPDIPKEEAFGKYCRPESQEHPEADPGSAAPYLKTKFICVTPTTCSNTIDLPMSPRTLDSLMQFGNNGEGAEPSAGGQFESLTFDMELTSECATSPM

Usually Kd stands for the concentration at which binding is half-saturated. Low values mean tighter binding, high ones weaker binding. In general, koff refers to the rate constant with which the complex falls apart. Lower therefore signals slow dissociation. The term kon denotes the rate constant with which the complex forms. Read a low kon as slower complex formation. anti-KRAS (negative control) (VHH): in assay [1], the dissociation constant Kd was 0.0675 µM, the off-rate (koff) stood at 0.000801 s⁻¹ and the kon worked out at 11900 M⁻¹ s⁻¹. In assay [2], this molecule showed an equilibrium dissociation constant (Kd) of 0.0292 µM, a koff of 0.00048 s⁻¹ and an on-rate constant (kon) of 16500 M⁻¹ s⁻¹. In assay [3], this molecule yielded a Kd of 0.00432 µM, a koff of 0.000386 s⁻¹ and an on-rate (kon) of 89300 M⁻¹ s⁻¹.

B1: STAT3 VHH13 (SEQ ID NO:3) produced and isolated from mammalian cells (VHH)
VHH: HVQLVESGGGSVQAGGSLRLSCAASGANGGRSCMGWFRQVPGKEREGVSGISTGGLITYYADSVKGRFTISQDNTKNTLYLQMNSLKPEDTAMYYCATSRFDCYRGSWFNRYMYNSWGQGTQVTVSS
With B1, the binding result in assay [4] is recorded as “binds”.
